Test: soluble on expression in E. coli; label from the status in PepcDB or PDB records

| Sequence | soluble on expression in E. coli |
| --- | --- |
| MWPAPRRVNLRSLGIAWPSPGGLDTLASNFPSEGCQNMNLYSLLSARAAGGKPVRVGLIGAGKFGSMVLAQAQRIAGFHMVAVADLNVGKARESFDRVGWPKERYDATSCADALKSGKTYVTDDVNELFACGEIECIIEATGHPLAGARHALGAIDHNKHVVMVNVEADVMVGPILAEKARAKGLIYSMAYGDQPALICELVDWARATGFEVVSAGKGMNFEPRYRYSTPDTVWSYFGWTDEEVAKGDFNPKMYNSFTDGTKAAIEMAAVANGTGLDCPDDGLAFPPAGLHDLARVFRPAADGGRMSRSGLVDIAASQEPDGREVFNNIRYGVFVTFKAHNDYARACFKQYGLLTDPSGWYASMWRPFHIIGLETSISVLSAVLRNEPTGCSKEFRGDAVATAKKDMQPGEMLDGEGGYAVWANAIPATRSLDIKALPIGLAHNVKLKRPIKKDQIVSFDDVELVSDLDVVKLRQDMEHQFRPQKDAAA | not soluble |
| MWRLIYSLLFLIPGAAMAGAQVYEPLSASTRTVLHRTISDQAVPMLVTLPGPEAKDWLDSMTKRLEKRISDIEERRAFLITVHYEATRAGLDPELVLSIIQVESNFRKYAVSSAGARGYMQVMPFWVDTIGNPEHNLFHLRVNLRYGCTILRHYLDLEQGDYFRALGRYNGSLGKAGYPNLVFNAWHRHWTYSTASQ | not soluble |
| MWRLYRKTPKQLRNSVESCFKSVNSRQFSVSSFSAVAKDDKSVLKQQEVLHLLAKDQRFEERFFNQVQQTIRYFASKPNDLKKFFRKEASTDNKESSSSSDKKDSKGNKGEDNNPFNQFPGGWQQIAVSVGILLALYAFMDYQSYREISWKEFYSDFLEAGLVERLEVVDKRWVRIVSSSGKYAGQTCYFNIGSVDSFERSLGAAQHHLQYDADRQIPVLYKSEFNFKREIPNLISVAFPLLFGYYIYRMLKGGGAAGGAGRAGGGGLGGMFGGFGQSTARVINREDIKVKFADVAGCEEAKIEIMEFVNFLKNPQQYKDLGAKIPKGAILTGPPGTGKTLLAKATAGEANVPFITVSGSEFLEMFVGVGPARVRDMFSMARKNSPCILFIDEIDAVGRKRGGKGGMGGHSEQENTLNQLLVEMDGFTTDESSVIVIAATNRVDILDSALLRPGRFDRQIYVPVPDIKGRASIFRVHLGPLRTSLDKTVLSRKLAAHTPGFSGADISNVCNEAALIAARDANHEISNKHFEQAIERVVAGMEKKTQVLQKEEKKTVAYHEAGHAIAGWFLQHADPLLKVSIIPRGKGLGYAQYLPKEQYLYSKDQLLDRMCMTLGGRVAEEIFFGRITTGAQDDLQKVTQMAYSQVVKFGMSEKVGPLSFETPAPGEMAFDKPYSEATAQLIDQEVRDLVMNALRRTRDLLLEKRSDIERVALRLLEKEILNREDMIELVGKRPFVEKNTYEEMVSGTGGLDENVELPKGLENWNKESEKKKKDEEKKKNDE | not soluble |
| MWRVGVYSSLRGYKRLNFCCEMLIAAYPKVGECAREGLMDKEVCINAAKGRFLGLRLPELFGGSDMRLNRSCRRRNMKLAAWCMLIQCDSRGGNHAAEVREIGDITKIAICQQCDFECAGPSANFKVTRLQGLRTLKAANRSESLNVEGCYALQSLLM | not soluble |
| MWVDGMAKVVEVGRICVKTRGREAGRKCVIVDIIDENFVLVTGPKSLTGVRRRRVNIDHIEILDKKVDIQKGASDEEVLKALEEAGLADFMREPVRIARITPFTLLEHHHHHH | not soluble |
| MWYGLGLAFLGGIFRIFPFDMEHTITRQIFCPWLFAFSMTRKQFQGRKPYNYLASFLLFQCRLKESFHGQLVKPIVSWNLWTHRYHNGCFR | not soluble |
| MYAMNLARYKYCPDIKEKGLSGSPRLILFTSAECHYSMKKAASFLGIGTENVCFVETDGRGKMIPEELEKQVWQARKEGAAPFLVCATSGTTVLGAFDPLDEIADICERHSLWLHVDASWGGSALMSRKHRKLLHGIHRADSVAWNPHKMLMAGIQCCALLVKDKSDLLKKCYSAKASYLFQQDKFYDVSYDTGDKSIQCSRRPDAFKFWMTWKALGTLGLEERVNRALALSRYLVDEIKKREGFKLLMEPEYANICFWYIPPSLREMEEGPEFWAKLNLVAPAIKERMMKKGSLMLGYQPHRGKVNFFRQVVISPQVSREDMDFLLDEIDLLGKDM | soluble |
| MYATSTQKREWTYTPEKLAAMRLEINIKFRQKYESVMQPDELELFVTPEEELRMQRSIEDAALKFADKFRPHIWPSVKWTALAFFKRAFLVWVPSDTSIRMVMMACFYLAMKIDEFYITIEDFVKNMNVGEPRQNAERILKLEPELMKILDYNLTVHCPYRPYEGHLMDMKTRMLLLNFDLESIRRDSMRFFQNALQTDVLLLYPPSQIALAAINFGLHAQGKSDEILREFLRKLIGIEEDSWAHRDARPEDLEKLEKTVTRVNQIMREVDRNFVAVTEQERENHKSQLARIQALIPALDERRKEQWLAGGGVGLMPGELAEQPVDSDDEIN | not soluble |
| MYDWFKQMRKESPVYYDGKVWNLFKYEDCKMVLNDHKRFSSNLTGYNDKLEMLRSGKVFFDIPTRYTMLTSDPPLHDELRNLTADAFNPSNLPVDFVREVTVKLLSELDEEFDVIESFAIPLPILVISKMLGINPDVKKVKDWSDLVALRLGRADEIFSIGRKYLELISFSKKELDSRKGKEIVDLTGKIANSNLSELEKEGYFILLMIAGNETTTNLIGNAIEDFTLYNSWDYVREKGALKAVEEALRFSPPVMRTIRVTKEKVKIRDQVIDEGELVRVWIASANRDEEVFKDPDSFIPDRTPNPHLSFGSGIHLCLGAPLARLEARIALEEFAKKFRVKEIVKKEKIDNEVLNGYRKLVVRVERT | soluble |
| MYFPSGSDPFAVGEDLGVWAPADHQRIIAKLTTGLGVLFYHTKAIHLEPLPETMLDDAKASLVPDLSLVDNESSETPIIIEVCKTAGLKGDLRKVIQLIDDGIYGIREGFVYNYKTQQWLRYRFGDGGLTTESSFSEILNLDLNTFL | not soluble |
| MYIPKYFKVTNAEEIWNFVQENSFGTVVTTEQGKPIATHLPLGFNKKDDHYYITGHFAYGNPQWRTFEACEDVLVMFQGPHAYISSSWYSRENVPTWNYQAVHMYGKASMLEKDELAEELTIMLEQKTPTQAFSVLWDKLSPKLLESELKGIVGFKIKVEDIQAAYKLSQNRNETDYMNVIEQLQNEENPNAKQMAELMEDKLKKQI | not soluble |
| MYIRINNGVTECNIRLVGTAHVSDDSITEVKNAIVETDPELVAIELDKDRFVAMFQNKKNDVDLKSVIKQGKVGIYIVHSILANFQKNIGEQFGIKPGSEMKKATDLAIQYQKPISLIDRPINITLSRTVNKMTFKEKFDFVIGLLTEQNVELDEKAINEMVSNADDLILLLKDISPSIYETLVNERDKYMAKNLFEASKGKENIVAVVGAGHVPGIKNYLKKMESGEDIDLKSLM | not soluble |
| MYKAFYGLSDNPFSIAPNPHYLFLSDRHREALAHLTYGLGETGGFVLLTGEVGTGKTTVSRCLLGQLPDNTDTAFILNPSLTELELLATLCDELKISYGENPTLKQLTDHLSRFLLANHEKGRKTVLIIDEAQHLRAEVLEQLRLLTNLETDTKKLLQVILIGQPELQLLLKRQELRQLAQRITARYHLLPLNEDEITLYVLHRLQVAGRFEPLFTRKAIKVLHKYSGGIPRLINLLCERALMAGYAQSKVPIDHHMVRQAAAEVLGEEKPSQNKFLWPSAIAAALVLTFGVSYWLFTDHAVVATVANENVTQPKQTVIAENAVQQSQTALTNTAPAITLAQTPAAPDPNLRVLQEAIKQSRQIDTAFAGLFNVWGKVPFKGLTACQSAFEQGLSCYQQQGNWMSLTRLNYPAVVYLVDDNQQDFYGAVIAVDGEQLLMQLGEQQLWVERTWFNQHFSGTFEILWQAPNLPMMEISQKSSPGQLQWLENALAHVAKRPSRRVSQFDLKLENDLKAFQSQHGLKADGIAGNQTLVRLNLYLSDQGPRLTDNGAQS | not soluble |
| MYKLIAIDMDGTLLNDHHEVTEEVRDALHAAKAEGVKIVLCTGRPIGGVQRYLDELNLIEEGDYVIAYNGALVQNTHTNEVVSELSLGYDDLTSLYDLSLELKTPMHFFDSSNLYTPNRDISEFTVYESYVTQVPLHFRKIDEVPKDILIPKVMFIDKPENLSRVITSIPKDVREKYTMVRSAPFFYEILHSEASKGNAVRQLAQLLGIEQAEVMCIGDNGNDLTMIEWAGCGVAMANAIPEVLEAANFQTRSNNEHGVAHAIHELVLAKLEHHHHHH | soluble |
| MYLQDRSPYMENSGSSNDRNSGKTEYQLTLIGALKKEIEIARRLDPEKLAAEIKKTGFSCQNCGKCCKRAFGDNRVVLTPQEIEKIQKYTDLSKLEVAGPLIPDISCPEEAGEGEEDRVAENSSIMPEIDEKKTSEPFRTPELLKEDIDPDGNIHAYGWMLRRKRNGDCVFLEKDTNRCRIYPVRPMLCSTYPFYIEGLKLYTCECEGLGVHISAEESRKLAGSLLSRYVSELEDTLAMYEKYEDFERTEKGHEIAKNNLEKGTCIYIVHDSRGITKIIDLEHHHHHH | soluble |
| MYMASISLKKGQKVDLTKTNPGLSKVLVGLGWDTNRYDGQNDFDLDVSIFLVGANGKVSGAEDFVFYNNPKGANGAVEHLGDNRTGEGEGDDEAIKVDLKNVPAHIERICFTITIYDGEGRSQNFGQVSNSFVRILDEEKNAELIRYDLGEDFSIETAVVVGELYRHAGDWKFNAIGSGFQGGLASLCNNFGLDVE | not soluble |
| MYNDRHLSLFHLLFRAKIQRAINYFFMITFSEIQLLRGGKPLLEQASATIHPGDKVGLVGKNGCGKSTLFALLKDELTIDAGSFSKPAHWELAWVAQETPALDRTALEYVIDGDREYRELERQLMDAEAADNGTKVADLHGKIEMVGGYSIRARASELLDGLGFTQEQMSWSLTQFSGGWRMRLNLAQALICRSDLLLLDEPTNHLDLDAVMWLERWLQSYPGTLILISHDRDFLDPIVNRIVHIENQTLNEYTGNYSSFETQRAQKMLQQQAIYQKQQKQMAHMQSYIDRFRYKASKARQAQSRIKALERMEKVLPAQFDNPFSFEFREPAALPNPILMMDQVAAGYGDHLILEKIRLNLVPGSRIGLLGRNGAGKSTLIKLLSGELKPQSGDCTYSQGVKIGYFAQHQLETLHPEETPLQHMMQIAPDKNELELRNYLGSFGFHGEKALEKVAPFSGGEKARLVLALIVWQKPNLLLLDEPTNHLDLDMRQALTLALQSYEGAMVIVSHDRYLLRATTDDLYLVHDHQVGPFDGDLNDYYKWLTDQQKAERKETQPTNTANSANSAAAKKEQKRREADFRKLTAPIRKKLTQLEEKLDKLNHVVSEMEAQLSDTSLYEAQNKATLTEVLAKQAAAKSELEQVELEWMAEQETLEEMERKFNG | not soluble |
| MYNITLPVLGTRLKQIREHVGYSQAQLAEQLNCKQNAISNLELGKGGSLKLLFQVLNFYSNYVFIDLIFSEKFYLISNTEEDEAQKANYNSVIIEIIRQSEKNYENAMSNAKKELEANLQKAINLLQP | not soluble |
| MYNNSAPYLNHSSLNTVRKKVVTVRRVLPSLPPPPPPPPSLYPPCSVFKVPYIPQRVYRSINSTLYNNQSFASSSRGFYRKQKPIPKSHPKHQEHHHHAKASVSTPVHSSSTSRNSSVAPTPQRTVSTSSSSSSAATSARVSEDESDSDSTPGEVQRRKTSVLSNDKRRRRASFSSTSIQSSPERQRDVSSSSRTSSSSSTSSMKQEETADEKSRKRKLIMSSDESSTTGSTATSVVSSRQSSLEPQQEKTDGEPPKKKSQTDFISERVSKIEGEERPLPEPVETSGPIIGDSSYLPYKIVHWEKAGIIEMNLPANSIRAHEYHPFTTEHCYFGIDDPRQPKIQIFDHSPCKSEPGSEPLKITPAPWGPIDNVAETGPLIYMDVVTAPKTVQKKQKPRKQVFEKDPYEYYEPPPTKRPAPPPRFKKTFKPRSEEEKKKIIGDCEDLPDLEDQWYLRAALNEMQSEVKSADELPWKKMLTFKEMLRSEDPLLRLNPIRSKKGLPDAFYEDEELDGVIPVAAGCSRARPYEKMTMKQKRSLVRRPDNESHPTAIFSERDETAIRHQHLASKDMRLLQRRLLTSLGDANNDFFKINQLKFRKKMIKFARSRIHGWGLYAMESIAPDEMIVEYIGQTIRSLVAEEREKAYERRGIGSSYLFRIDLHHVIDATKRGNFARFINHSCQPNCYAKVLTIEGEKRIVIYSRTIIKKGEEITYDYKFPIEDDKIDCLCGAKTCRGYLN | soluble |

Source: the DeepSol protein solubility set
